Test results as given in patent US20220332759A1, “TARGETED PULMONARY DELIVERY COMPOSITIONS AND METHODS USING SAME” (Rutgers, The State University of New Jersey, priority 2019, published 2022).
Ends that are not written are not given here.

What was measured:
[1] = target: T1, human recombinant α3β1 integrin (Homo sapiens, UniProt P05556+P26006); test: Phage binding assay to immobilized recombinant proteins; conditions: increasing molar concentrations, relative to unrelated control peptide
T1 construct: purchased R&D Systems
T1 sequence (P26006 33-991 limits assumed): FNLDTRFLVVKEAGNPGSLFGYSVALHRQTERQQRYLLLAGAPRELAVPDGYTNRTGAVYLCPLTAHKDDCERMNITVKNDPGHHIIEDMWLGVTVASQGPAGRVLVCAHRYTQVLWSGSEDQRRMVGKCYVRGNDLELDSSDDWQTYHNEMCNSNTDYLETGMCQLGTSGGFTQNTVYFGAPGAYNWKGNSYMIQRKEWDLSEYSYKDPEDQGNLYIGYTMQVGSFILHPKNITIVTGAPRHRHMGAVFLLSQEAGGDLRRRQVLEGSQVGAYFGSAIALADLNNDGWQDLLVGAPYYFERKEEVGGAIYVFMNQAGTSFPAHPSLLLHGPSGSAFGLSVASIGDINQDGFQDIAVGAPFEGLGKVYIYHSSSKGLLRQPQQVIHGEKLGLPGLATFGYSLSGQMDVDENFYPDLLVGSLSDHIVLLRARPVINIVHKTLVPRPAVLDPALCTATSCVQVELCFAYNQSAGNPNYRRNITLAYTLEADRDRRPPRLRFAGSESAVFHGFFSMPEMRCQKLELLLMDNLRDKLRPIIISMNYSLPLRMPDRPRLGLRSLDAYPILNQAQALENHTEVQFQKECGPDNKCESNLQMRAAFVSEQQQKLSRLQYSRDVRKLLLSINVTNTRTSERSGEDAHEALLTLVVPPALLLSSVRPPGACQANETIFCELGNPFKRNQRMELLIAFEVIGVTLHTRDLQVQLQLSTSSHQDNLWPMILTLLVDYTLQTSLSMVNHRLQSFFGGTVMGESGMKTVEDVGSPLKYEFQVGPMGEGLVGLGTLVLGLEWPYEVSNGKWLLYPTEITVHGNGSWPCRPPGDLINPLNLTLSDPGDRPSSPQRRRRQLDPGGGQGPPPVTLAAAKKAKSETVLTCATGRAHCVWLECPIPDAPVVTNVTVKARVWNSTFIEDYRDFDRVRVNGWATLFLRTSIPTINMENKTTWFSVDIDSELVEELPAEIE
T1 sequence (P05556 21-728 limits assumed): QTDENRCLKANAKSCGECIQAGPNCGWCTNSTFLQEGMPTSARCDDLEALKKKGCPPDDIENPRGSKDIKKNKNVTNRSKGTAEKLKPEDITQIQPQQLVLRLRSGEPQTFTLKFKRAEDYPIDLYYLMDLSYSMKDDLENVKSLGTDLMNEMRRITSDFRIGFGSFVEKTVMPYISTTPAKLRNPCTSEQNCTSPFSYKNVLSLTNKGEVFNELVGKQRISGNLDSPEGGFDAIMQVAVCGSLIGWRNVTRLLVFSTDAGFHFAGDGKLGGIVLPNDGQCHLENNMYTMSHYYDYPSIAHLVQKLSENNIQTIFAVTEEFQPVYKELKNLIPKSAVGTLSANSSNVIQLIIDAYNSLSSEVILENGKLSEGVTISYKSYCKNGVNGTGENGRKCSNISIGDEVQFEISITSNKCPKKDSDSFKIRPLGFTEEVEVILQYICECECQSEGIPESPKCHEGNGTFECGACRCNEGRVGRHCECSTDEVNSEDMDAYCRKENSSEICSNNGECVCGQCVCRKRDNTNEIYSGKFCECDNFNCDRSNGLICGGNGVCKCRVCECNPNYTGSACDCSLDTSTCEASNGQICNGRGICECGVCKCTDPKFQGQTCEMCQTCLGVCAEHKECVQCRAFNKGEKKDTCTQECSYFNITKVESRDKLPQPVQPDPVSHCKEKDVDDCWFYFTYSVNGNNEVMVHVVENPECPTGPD
Experimental: Phage binding to recombinant proteins (α3β1, α6β1, α6β4, NRP-1 and SDC-1) and BSA (Sigma) were performed as described (Cardó-Vila, et al., 2008, PLoS One 3:e3452). Briefly, 100 ng of each of the indicated proteins dissolved in 50 μL PBS were immobilized in microtiter wells overnight (ON) at 4° C. […] After 2 h at RT, wells were gently washed 10 times with PBS, and phage was recovered by host bacterial infection and represented as “Relative TU” as an empirical measure of the biological replicates and controls when compared to one another as described (Arap, W. et al., Nat. Med., 2002, 8:121-127; Cardó-Vila, et al., 2008, PLoS One 3:e3452). Human recombinant proteins α3β1, α6β1, α6β4, NRP-1 and SDC-1 were all commercially obtained from R&D Systems. Recombinant GST and […]-GST were produced in E. coli transformed with the pGEX4T-1 plasmid (Amersham, GE Healthcare) and purified with standard protocols. All synthetic peptides were custom manufactured by Merrifield synthesis and quality-controlled to the necessary specifications (Biomatik and PolyPeptide Laboratories).

[2] = system: A549 cell monolayer; test: Cellular barrier permeability (Transwell) assay and empirical model of phage transport; format: in vitro ADME, human; conditions: A549 cells, different concentrations, 1 h
Text: To investigate the transport of phage particles across the cellular monolayer, data from the in vitro Transwell assays (FIG. 3E) was used to quantify the parameters of an empirical mathematical model of phage accumulation in the bottom chamber (Equation 1). The mass of phage particles [N(t), measured experimentally as TU] transported across the cellular barrier at time t, was represented by Equation (Eq. 1), as follows:
where, Ns represent the mass of phage particles (TU) in the bottom chamber at saturation; k is the transport rate constant, the inverse of which gives the characteristic time (τ=1/k) of the transport process. The first derivative of Equation 1
provides the time-dependent transport rate of phage particles across the in vitro cellular barrier. Least squares fitting of the model to the experimental data was performed in MATLAB. The transport rate decays exponentially over time at rate k, and its maximal value can be determined at time t=0 as […]

[3] = target: T2, mouse α3β1 integrin expressed on the plasma membrane of AT1 and AT2 alveolar epithelial cells and club cells (mouse, UniProt Q62470 33-1053; P09055 21-798); test: TU count of phage recovered from flow-sorted mouse lung cells after aerosol administration
T2 construct: whole, on cells; Target on lung cells of BALB/c mice after aerosol administration of phage; also called α3β1 integrins in lung tissue; α3β1 integrin in vivo
T2 sequence (Q62470 33-1053, chain 1 of 2): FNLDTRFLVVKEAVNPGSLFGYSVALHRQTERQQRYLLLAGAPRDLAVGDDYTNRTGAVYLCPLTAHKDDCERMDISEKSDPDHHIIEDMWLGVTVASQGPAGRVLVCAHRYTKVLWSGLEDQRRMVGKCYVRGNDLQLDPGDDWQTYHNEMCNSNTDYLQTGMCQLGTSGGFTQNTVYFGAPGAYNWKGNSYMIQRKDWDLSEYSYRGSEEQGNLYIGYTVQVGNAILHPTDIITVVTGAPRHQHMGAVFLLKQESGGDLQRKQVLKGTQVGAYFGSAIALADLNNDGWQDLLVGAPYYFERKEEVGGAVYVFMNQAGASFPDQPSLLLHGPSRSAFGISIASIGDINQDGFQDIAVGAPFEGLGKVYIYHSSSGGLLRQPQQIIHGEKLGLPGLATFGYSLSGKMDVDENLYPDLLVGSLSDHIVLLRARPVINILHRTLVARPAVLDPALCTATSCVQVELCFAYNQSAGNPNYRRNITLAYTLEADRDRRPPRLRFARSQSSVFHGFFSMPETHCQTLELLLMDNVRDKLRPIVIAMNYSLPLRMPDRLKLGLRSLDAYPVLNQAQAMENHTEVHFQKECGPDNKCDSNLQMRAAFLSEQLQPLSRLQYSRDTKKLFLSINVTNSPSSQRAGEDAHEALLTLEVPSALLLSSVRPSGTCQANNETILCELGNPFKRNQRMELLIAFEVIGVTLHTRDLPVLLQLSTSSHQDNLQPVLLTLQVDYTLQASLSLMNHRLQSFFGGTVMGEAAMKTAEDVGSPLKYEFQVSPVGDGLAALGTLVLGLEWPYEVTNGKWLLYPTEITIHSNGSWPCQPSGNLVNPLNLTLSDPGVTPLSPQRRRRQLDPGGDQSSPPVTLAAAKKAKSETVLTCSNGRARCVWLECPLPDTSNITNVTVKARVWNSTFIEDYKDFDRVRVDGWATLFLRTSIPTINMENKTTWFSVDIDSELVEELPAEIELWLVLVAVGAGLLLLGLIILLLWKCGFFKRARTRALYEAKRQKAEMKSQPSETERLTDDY
T2 sequence (P09055 21-798, chain 2 of 2): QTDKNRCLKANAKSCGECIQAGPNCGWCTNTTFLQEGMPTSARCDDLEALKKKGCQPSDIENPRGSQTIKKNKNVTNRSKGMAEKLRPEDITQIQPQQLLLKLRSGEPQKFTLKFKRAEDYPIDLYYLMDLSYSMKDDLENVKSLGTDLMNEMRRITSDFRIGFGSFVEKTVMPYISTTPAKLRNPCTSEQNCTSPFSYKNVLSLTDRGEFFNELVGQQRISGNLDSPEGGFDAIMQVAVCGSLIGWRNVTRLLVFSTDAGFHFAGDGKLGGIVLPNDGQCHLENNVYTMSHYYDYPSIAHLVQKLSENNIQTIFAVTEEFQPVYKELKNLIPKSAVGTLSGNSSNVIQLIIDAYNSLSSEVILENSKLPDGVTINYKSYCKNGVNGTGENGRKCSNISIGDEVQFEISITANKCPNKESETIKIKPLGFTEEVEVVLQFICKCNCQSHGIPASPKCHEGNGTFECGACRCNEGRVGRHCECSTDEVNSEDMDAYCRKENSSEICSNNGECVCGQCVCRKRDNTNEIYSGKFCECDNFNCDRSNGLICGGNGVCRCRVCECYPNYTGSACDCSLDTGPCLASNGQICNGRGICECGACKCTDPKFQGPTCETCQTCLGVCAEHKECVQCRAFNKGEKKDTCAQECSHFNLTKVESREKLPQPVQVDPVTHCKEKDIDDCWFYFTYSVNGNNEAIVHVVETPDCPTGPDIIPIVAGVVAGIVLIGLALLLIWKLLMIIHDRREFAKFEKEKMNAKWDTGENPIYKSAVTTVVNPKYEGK
Experimental: Cells were sorted in an iCyt sy3200 (Sony) cell sorter previously calibrated with compensation beads (UltraComp eBeads, Thermo Scientific). AT1-, AT2-enriched cell populations and macrophages were centrifuged, and the number of phage particles per cell type was determined by TU count.
To further evaluate the bioavailability of [sequence]-displaying phage particles after aerosol administration, the binding capabilities of the phage particles to specific lung cells were determined by flow cytometry. […] Specific cell populations of the lung were isolated and flow cytometry sorted in three main cell populations (FIG. 5A): AT1-enriched population (EPCAM⁺, CD45⁻, CD31⁻, T1α^high); AT2-enriched population (EPCAM⁺, CD45⁻, CD31⁻, Tα^low) and mononuclear phagocytes (EPCAM⁻, CD45⁺, CD31⁻, F4/80⁺). The number of either targeted or control phage particles bound to each cell population was determined by TU counting after infection with a host bacterium.

[4] = target: T3, human recombinant α3β1 integrin (human, UniProt P26006 33-991; P05556 21-728); test: competition of phage binding to immobilised α3β1 (FIG. 3B)
T3 construct: Bought protein, 100 ng immobilised in microtiter wells; also called α3β1 integrins
T3 sequence (P26006 33-991 limits assumed, chain 1 of 2): as the sequence (P26006 33-991 limits assumed) above
T3 sequence (P05556 21-728 limits assumed, chain 2 of 2): as the sequence (P05556 21-728 limits assumed) above

With “CAKSMGDIVC [index ligand transport peptide; soluble synthetic peptide produced through Merrifield synthesis]” the “inhibition of CAKSMGDIVC-displaying phage binding to α3β1 integrin” value [1] was “Concentration-dependent inhibition”.

For “CAKSMGDIVC-GST: recombinant CAKSMGDIVC-GST produced in E. coli transformed with the pGEX4T-1 plasmid (CAKSMGDIVC-{GST}; cysteine pairing not given here)”, the “competition of CAKSMGDIVC-displaying phage transport in Transwell” value [2] was “concentration-dependent ligand-receptor specificity”.

B1: targeted CAKSMGDIVC-displaying phage particles (other, not shown: large carriers)
chain: CAKSMGDIVC
modifications: not fully specified (bridges); cysteine pairing not given here; also: displayed on phage pIII
notes: Whole phage particle; also called phage clone 2
B1 was tested, and the “fold binding to AT1-enriched population against AT2-enriched cells” value [3] was ~2 fold.

B2: synthetic CAKSMGDIVC peptide (peptide)
peptide: CAKSMGDIVC
notes: Made by Merrifield synthesis; also called cognate synthetic peptide
B2: binds [4].
